Laboratory results: article PMC4868133

Target: MUC2 VWD3 domain alone, produced as a shorter recombinant protein without the VWD1D2 domains (human)

- stoichiometry N: 3
Substance: MUC2 VWD3 domain alone, produced as a shorter recombinant protein without the VWD1D2 domains (domain or fragment)
